Test [1] has as its target rat hypothalamic Y5 receptor (rat) (UniProt Q63634). The test can be described thus: 125I-PYY displacement, COS-7 membranes.
For test [2], the target named is rat hypothalamic membranes (NPY/PYY binding sites). Put plainly: 125I-PYY displacement, rat hypothalamic membranes.
For test [3] the target is unchanged. Put plainly: 125I-PYY3-36 displacement, rat hypothalamic membranes.
Another test has as its target rat Y4 receptor (rat) (UniProt Q63447). Put plainly: 125I-PYY displacement, COS-7 membranes.
Test [4] deals with rat hypothalamic membranes (NPY/PYY binding sites). Put plainly: 125I-PYY3-36 displacement, rat hypothalamic membranes, low-affinity part.
For test [5] the target is unchanged. The test can be described thus: 125I-PYY3-36 displacement, rat hypothalamic membranes, high-affinity part.
Test [6] has the same target. Put plainly: 125I-PYY displacement, rat hypothalamic membranes, high-affinity part.
The target is the same in test [7]. Put plainly: 125I-PYY displacement, rat hypothalamic membranes, low-affinity part.
Test [8] has as its target human Y5 receptor (human) (UniProt Q15761). Put plainly: 125I-PYY3-36 displacement, LM(tk-) membranes.
For the next test, the target named is rat Y2 receptor (rat) (UniProt Q9ERC0). Put plainly: 125I-PYY displacement, COS-7 membranes.
For the next test, the target named is rat Y1 receptor (rat) (UniProt P21555). The test can be described thus: 125I-PYY displacement, COS-7 membranes.
The target in test [9] is rat hypothalamic Y5 receptor (rat) (UniProt Q63634). The test can be described thus: cell-based or functional assay.
In test [10] the target is human Y5 receptor (human) (UniProt Q15761). Put plainly: 125I-PYY displacement, LM(tk-) membranes.
Test [11] addresses rat hypothalamic Y5 receptor (rat) (UniProt Q63634). The test can be described thus: 125I-PYY displacement, COS-7 membranes. The source holds these as a separate data set.
In test [12] the target is human Y1 receptor (human) (UniProt P25929). Put plainly: 125I-PYY displacement, COS-7 membranes.
The target of test [13] is human Y2 receptor (human) (UniProt P49146). Put plainly: 125I-PYY displacement, COS-7 membranes.
Test [14] deals with canine Y5 receptor (canine) (UniProt O62729). The test can be described thus: 125I-PYY displacement, COS-7 membranes.
Test [15] has as its target human Y4 receptor (human) (UniProt P50391). Put plainly: 125I-PYY displacement, COS-7 membranes.
Test [16] addresses human Y5 receptor (human) (UniProt Q15761). Put plainly: 125I-PYY displacement, COS-7 membranes.
For test [17], the target named is rat hypothalamic Y5 receptor (rat) (UniProt Q63634). Put plainly: 125I-PYY displacement, COS-7 membranes. This is another data set of the same source.
Test [18] deals with human Y5 receptor (human) (UniProt Q15761). Put plainly: cell-based or functional assay.
The target is the same in test [19]. The test can be described thus: 125I-PYY displacement, COS-7 membranes. The source holds these as a separate data set.

Like-named read-outs stand apart in the source and are kept apart here.

rat Y4 receptor (rat), sequence (Q63447 whole entry): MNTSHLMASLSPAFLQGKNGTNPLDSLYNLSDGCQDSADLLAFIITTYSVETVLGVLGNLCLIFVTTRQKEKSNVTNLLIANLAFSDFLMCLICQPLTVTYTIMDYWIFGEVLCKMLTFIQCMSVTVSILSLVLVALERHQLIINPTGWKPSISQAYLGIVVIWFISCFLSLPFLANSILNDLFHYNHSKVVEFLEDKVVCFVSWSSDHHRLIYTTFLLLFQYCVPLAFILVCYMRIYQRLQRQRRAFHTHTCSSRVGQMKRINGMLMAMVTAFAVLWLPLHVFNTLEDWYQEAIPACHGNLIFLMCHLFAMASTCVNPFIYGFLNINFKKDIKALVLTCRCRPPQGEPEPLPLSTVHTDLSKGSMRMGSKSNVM
rat hypothalamic Y5 receptor (rat), sequence (Q63634 other isoform, or with tags, fused parts or gaps): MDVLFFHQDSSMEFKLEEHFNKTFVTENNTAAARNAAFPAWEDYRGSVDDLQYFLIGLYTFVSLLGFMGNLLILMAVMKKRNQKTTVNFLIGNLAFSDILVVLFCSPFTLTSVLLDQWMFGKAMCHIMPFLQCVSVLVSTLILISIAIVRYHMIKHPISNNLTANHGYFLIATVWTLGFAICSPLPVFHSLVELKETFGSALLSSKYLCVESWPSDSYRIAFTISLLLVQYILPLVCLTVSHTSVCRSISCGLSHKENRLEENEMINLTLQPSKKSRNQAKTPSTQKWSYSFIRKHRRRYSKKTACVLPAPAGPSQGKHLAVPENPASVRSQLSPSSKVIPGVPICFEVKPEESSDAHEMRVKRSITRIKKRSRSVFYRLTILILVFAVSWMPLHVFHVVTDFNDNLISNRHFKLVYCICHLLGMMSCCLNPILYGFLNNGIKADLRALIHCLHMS
salmon PP (peptide), sequence (P69092 whole entry): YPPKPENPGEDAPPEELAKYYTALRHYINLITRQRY
human Y5 receptor (human), sequence (Q15761 other isoform, or with tags, fused parts or gaps): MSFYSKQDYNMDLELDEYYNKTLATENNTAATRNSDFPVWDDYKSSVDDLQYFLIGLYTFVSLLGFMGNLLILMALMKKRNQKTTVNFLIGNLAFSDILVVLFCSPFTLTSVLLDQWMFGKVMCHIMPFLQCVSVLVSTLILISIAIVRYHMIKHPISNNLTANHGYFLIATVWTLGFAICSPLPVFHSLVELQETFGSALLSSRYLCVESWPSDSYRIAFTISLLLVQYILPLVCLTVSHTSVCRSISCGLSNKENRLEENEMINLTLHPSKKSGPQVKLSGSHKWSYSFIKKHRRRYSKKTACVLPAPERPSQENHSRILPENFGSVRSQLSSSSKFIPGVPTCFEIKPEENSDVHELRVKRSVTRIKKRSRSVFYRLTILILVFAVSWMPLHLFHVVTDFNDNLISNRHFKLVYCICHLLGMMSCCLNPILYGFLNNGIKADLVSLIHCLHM
human Y2 receptor (human), sequence (P49146 whole entry): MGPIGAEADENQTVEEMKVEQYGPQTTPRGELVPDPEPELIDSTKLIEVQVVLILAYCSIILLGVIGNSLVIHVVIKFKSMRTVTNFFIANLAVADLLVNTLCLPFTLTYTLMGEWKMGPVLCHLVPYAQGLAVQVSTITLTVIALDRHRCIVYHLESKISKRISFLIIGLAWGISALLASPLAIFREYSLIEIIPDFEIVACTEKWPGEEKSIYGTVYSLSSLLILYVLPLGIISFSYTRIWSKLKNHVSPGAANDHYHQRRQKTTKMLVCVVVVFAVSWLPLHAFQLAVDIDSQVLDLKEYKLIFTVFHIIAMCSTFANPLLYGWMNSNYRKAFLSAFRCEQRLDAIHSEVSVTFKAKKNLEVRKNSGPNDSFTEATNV
rat Y2 receptor (rat), sequence (Q9ERC0 entry or part of it): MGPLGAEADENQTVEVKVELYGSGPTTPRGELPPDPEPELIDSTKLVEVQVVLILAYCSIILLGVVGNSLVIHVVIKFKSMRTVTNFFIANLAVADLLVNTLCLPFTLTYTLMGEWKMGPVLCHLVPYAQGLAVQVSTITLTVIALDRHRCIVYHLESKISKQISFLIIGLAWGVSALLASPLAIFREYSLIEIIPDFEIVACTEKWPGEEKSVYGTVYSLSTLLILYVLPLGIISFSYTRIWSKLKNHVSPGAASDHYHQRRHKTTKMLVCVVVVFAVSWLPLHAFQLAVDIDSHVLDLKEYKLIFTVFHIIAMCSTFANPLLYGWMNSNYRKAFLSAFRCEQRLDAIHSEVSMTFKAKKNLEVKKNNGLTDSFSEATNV
rat Y1 receptor (rat), sequence (P21555 whole entry): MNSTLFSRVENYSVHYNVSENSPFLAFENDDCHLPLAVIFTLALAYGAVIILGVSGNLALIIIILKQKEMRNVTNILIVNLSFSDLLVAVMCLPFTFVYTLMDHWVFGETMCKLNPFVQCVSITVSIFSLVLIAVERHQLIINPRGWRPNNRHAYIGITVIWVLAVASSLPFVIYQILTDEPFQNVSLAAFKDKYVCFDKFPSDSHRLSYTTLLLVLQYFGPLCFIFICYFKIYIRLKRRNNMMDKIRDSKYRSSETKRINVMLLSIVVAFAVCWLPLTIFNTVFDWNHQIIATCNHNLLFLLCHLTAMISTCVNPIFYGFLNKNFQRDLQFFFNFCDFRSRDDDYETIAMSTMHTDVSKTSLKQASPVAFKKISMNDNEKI
human Y1 receptor (human), sequence (P25929 whole entry): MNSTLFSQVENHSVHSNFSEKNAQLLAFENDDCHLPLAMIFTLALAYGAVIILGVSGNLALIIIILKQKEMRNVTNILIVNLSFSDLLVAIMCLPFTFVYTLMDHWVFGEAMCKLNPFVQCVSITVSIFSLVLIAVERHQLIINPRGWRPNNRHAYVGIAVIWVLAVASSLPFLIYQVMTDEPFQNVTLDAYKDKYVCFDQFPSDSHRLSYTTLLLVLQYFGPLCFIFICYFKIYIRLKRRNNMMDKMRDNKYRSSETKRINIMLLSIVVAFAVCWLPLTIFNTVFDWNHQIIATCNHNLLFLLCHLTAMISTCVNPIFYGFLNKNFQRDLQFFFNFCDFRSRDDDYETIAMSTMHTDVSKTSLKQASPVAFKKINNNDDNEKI
human Y4 receptor (human), sequence (P50391 whole entry): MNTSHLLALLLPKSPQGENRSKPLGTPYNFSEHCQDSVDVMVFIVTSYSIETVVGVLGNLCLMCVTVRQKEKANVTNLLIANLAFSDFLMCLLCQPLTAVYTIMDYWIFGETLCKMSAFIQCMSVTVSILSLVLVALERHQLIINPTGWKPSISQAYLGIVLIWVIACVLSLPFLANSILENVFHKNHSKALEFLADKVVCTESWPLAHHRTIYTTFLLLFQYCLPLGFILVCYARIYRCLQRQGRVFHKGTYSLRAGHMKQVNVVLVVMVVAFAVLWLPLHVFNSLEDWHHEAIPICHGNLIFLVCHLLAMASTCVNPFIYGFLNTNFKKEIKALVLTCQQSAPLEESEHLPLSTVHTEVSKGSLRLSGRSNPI
canine Y5 receptor (canine), sequence (O62729 other isoform, or with tags, fused parts or gaps): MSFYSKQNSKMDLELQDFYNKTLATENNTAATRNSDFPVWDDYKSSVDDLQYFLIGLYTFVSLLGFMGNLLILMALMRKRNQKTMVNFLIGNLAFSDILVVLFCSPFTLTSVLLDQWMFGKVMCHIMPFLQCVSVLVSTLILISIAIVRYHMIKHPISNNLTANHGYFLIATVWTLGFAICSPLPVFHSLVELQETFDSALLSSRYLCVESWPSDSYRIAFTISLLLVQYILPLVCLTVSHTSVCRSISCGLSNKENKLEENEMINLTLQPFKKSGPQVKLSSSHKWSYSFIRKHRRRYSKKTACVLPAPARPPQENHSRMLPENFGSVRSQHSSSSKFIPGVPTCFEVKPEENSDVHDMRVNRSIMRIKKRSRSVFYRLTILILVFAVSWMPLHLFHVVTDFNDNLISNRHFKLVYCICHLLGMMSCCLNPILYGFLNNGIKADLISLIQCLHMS

In test [1], W(nor-L)RF-amide (peptide) had a Ki of 8700 nM.
In the case of “human NPY2-36 (from UniProt P01303 30-64) (peptide)”, in test [2], the % NPY-produced displacement is 100% and the IC50 is 2.3 nM. Moreover, in test [3], the % NPY-produced displacement worked out at 100% and the IC50 is 1.2 nM.
In turn, “human NPY2-36, P01303 30-64 (peptide; other documents disagree on this pair)” displayed a Ki with rat Y4 receptor (rat) of 5 nM.
As for “human PP (from UniProt P01298 30-65) (peptide)”, in test [2], the % NPY-produced displacement came to 20%.
For the substance “human PYY (from UniProt P10082 29-64) (peptide)”, in test [2], the % NPY-produced displacement was found to be 100%. In [3], the % NPY-produced displacement turned out to be 100% and the IC50 was found to be 0.29 nM.
Turning to “human [Leu^31, Pro^34]NPY (from UniProt P01303 29-64) (peptide)”, the % NPY-produced displacement in [4] turned out to be 73%; in [5] it was 27%; in test [6], 44%; in [7], 56%. The IC50 was 250 nM in test [4], 0.38 nM in test [5], 0.21 nM in [6] and 340 nM in [7].
Turning to porcine C2-NPY (peptide), the Ki worked out at 220 nM in test [8]; 2.6 nM with rat Y2 receptor (rat); 140 nM in the test with rat Y1 receptor (rat); 22 nM in the test with rat Y4 receptor (rat); 260 nM in test [10]; 470 nM in [11]. Further, the Ki was 79 nM in [12]; 3.5 nM in test [13]; 300 nM in [14]; 120 nM in test [15]; 370 nM in test [16]; 260 nM in test [17]. Also, in [9], the EC50, inhibition of forskolin-stimulated cAMP accumulation, 293 cells worked out at 240 nM.
Turning to “porcine NPY3-36, P01304 12-45 (peptide; other documents disagree on this pair)”, in the test with rat Y4 receptor (rat), the Ki was 36 nM.
Turning to “rat/human NPY (from UniProt P01303 29-64) (peptide)”, in [2], the % NPY-produced displacement turned out to be 100% and the IC50 is 0.82 nM. The % NPY-produced displacement in test [3] amounted to 100%.
As to “rat/human NPY, P01303 29-64 (peptide; C-terminal amide; other documents disagree on this pair)”, the Ki in the test with rat Y4 receptor (rat) amounted to 1.7 nM.
For the substance salmon PP (peptide), the Ki worked out at 0.63 nM in test [8]; 0.16 nM in the test with rat Y2 receptor (rat); 0.3 nM with rat Y1 receptor (rat); 0.33 nM in [1]; 3 nM with rat Y4 receptor (rat); 0.46 nM in test [19]. Besides, the Ki in test [11] was found to be 0.31 nM; in test [12], 0.11 nM; in test [13], 0.17 nM; in [15], 3.2 nM; in [16], 0.27 nM. Further, the % inhibition relative to human NPY, cAMP, LM(tk-) cells in test [18] stood at 96%. The EC50, inhibition of forskolin-stimulated cAMP accumulation, LM(tk-) cells in test [18] is 4.5 nM. For the same substance, in [9], the EC50, inhibition of forskolin-stimulated cAMP accumulation, 293 cells is 0.92 nM.

Usually Ki stands for a measure of affinity in units of concentration, obtained from inhibition or displacement. The low end stands for tighter binding, the high end for weaker binding. The IC50 is the concentration that inhibits the measured activity by half. High values mean weaker potency, low ones greater potency.

Source of the values: patent US6713265.
